Laboratory results published in patent US20130344070A1 (SORRENTO THERAPEUTICS, published 2013).
Residue numbers refer to the chain shown, from its start.

B1: D1-1/LO (antibody, V domains shown)
VH: QVQLVQSGAEVKKPGASVKVSCKASGYTFTGYYMHWVRQAPGQGLEWMGWINPNSGVTKYAQKFQGRVTMTRDTSTSTVYMELSSLRSEDTAVYYCATGGFGYWGEGTLVTVSS
VL: LPVLTQPPSVSKGLRQTATLTCTGNSNNVGNQGAAWLQQHQGQPPKLLSYRNHNRPSGVSERFSPSRSGDTSSLTITGLQPEDEADYYCLAWDSSLRAFVFGTGTKLTVL
notes: The suffix '/LO' is not explained
B2: D1 (antibody, human IgG1, V domains shown)
VH: B1 VH with Q1E, Y33H, T76I, S77N, V79A, S85R, S88F, E89D, A92D
VL: B1 VL
notes: also called CCR2 D1 IgG; anti-CCR2 D1 antibody
B3: D1-1/45H8L1 (antibody, V domains shown)
VH: B1 VH
VL: B1 VL with L1Q, P2A
notes: also called D1H1/45H8L1; D1-1B
B4: D1-2/LO (antibody, V domains shown)
VH: B1 VH with Y33H, W50I, N54S, S55G, V57S, K59S
VL: B1 VL
notes: tested as IgG. '/LO' not explained

Assays:
[1] = molecular target: T1, human CCR2 (CC-Chemokine Receptor 2) (human, UniProt P41597 1-374); test: cell-based or functional assay
murine CCR2 [2] = molecular target: T2, murine CCR2 (murine, UniProt P51683 1-373); test: cell-based or functional assay
[3] = molecular target: T1, human CCR2 (CC-Chemokine Receptor 2); test: flow cytometry on CHO-huCCR2 cells, PE anti-human IgG
Description: (§1) The data in FIG. 1 illustrates in vitro data for cellular binding EC₅₀ measurements. […] In this example, CHO-CCR2 cells were lifted from culture flasks using non-enzymatic Cell Dissociation Buffer—PBS based (Life Technologies #13151-014). Cells were resuspended in FACS Buffer (2% Fetal Bovine Serum in PBS) at 1×10⁶ cells/ml and 100 μl (1×10⁵ cells) were aliquoted into the wells of a 96-well plate. Plated cells were spun down and the supernatant discarded. Cells were resuspended in 50 μl FACS Buffer containing the indicated concentrations of CCR2 D1 IgG in triplicate (FIG. 1). Plates were incubated for 1 hr at 4° C., then washed 1× with FACS Buffer. Cells were resuspended in 50 μl goat anti-human IgG (γ-chain specific)-PE conjugated secondary antibody (Southern Biotech #2040-09) diluted 1:500 in FACS Buffer. Cells were further incubated for 30 min at 4° C. and then washed 1× with FACS Buffer. The cells were resuspended in a final volume of 25 μl FACS Buffer and analyzed using the Intellicyt Flow Cytometer. Median fluorescence in the FL-2H channel was determined using FlowJo software and EC₅₀ value was determined by plotting the data in GraphPad Prism and analyzing using a variable slope non-linear regression.

murine CCR2 [4] = molecular target: T2, murine CCR2; test: flow cytometry on WEHI 274.1 cells (murine CCR2), PE anti-human IgG
Description: In this example, WEHI 274.1 cells were resuspended in FACS Buffer (2% Fetal Bovine Serum in PBS) at 1×10⁶ cells and […] of cell suspension was aliquoted into the wells of a 96-well plate. Plated cells were spun down and the supernatant discarded. Cells were resuspended in 30 μl FACS Buffer containing serially diluted anti-CCR2 IgGs in triplicate. Plates were incubated for 1 hr at 4° C., then washed 2× with FACS Buffer. Cells were resuspended in 50 μl goat anti-human IgG (γ-chain specific)-PE conjugated secondary antibody (Southern Biotech #2040-09) diluted 1:500 in FACS Buffer, incubated for 30 min at 4° C. and then washed 1× with FACS Buffer. The cells were resuspended in a final volume of 30 μl FACS Buffer and analyzed using the Intellicyt Flow Cytometer. Median fluorescence in the FL-2H channel was determined using FlowJo software and EC₅₀ values were determined by plotting the data in GraphPad Prism and analyzed using a variable slope non-linear regression.

[5] = molecular target: T1, human CCR2 (CC-Chemokine Receptor 2); test: cell-based or functional assay; remark: listed apart in the source
murine CCR2 [6] = molecular target: T2, murine CCR2; test: cell-based or functional assay; remark: listed apart in the source
[7] = molecular target: T1, human CCR2 (CC-Chemokine Receptor 2); test: cell-based or functional assay; remark: listed apart in the source
[8] = molecular target: T1, human CCR2 (CC-Chemokine Receptor 2); test: cell-based or functional assay; remark: listed apart in the source
[9] = molecular target: T1, human CCR2 (CC-Chemokine Receptor 2); test: flow cytometry on CHO-CCR2 cells (FIG. 1)
Description: as §1

murine CCR2 [10] = molecular target: T2, murine CCR2; test: flow cytometry on murine CCR2-expressing cells (FIG. 2)

T2 sequence (P51683 whole entry): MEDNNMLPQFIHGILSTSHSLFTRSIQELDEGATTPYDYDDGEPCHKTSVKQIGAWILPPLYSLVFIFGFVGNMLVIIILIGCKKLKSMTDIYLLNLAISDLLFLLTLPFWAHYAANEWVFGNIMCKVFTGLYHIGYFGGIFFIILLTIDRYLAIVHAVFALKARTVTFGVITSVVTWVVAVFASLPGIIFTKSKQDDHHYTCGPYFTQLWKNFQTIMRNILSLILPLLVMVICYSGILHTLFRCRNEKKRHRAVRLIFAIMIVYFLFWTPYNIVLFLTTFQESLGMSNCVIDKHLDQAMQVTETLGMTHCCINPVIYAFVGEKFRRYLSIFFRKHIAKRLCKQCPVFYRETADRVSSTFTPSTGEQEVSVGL
T1 sequence (P41597 whole entry): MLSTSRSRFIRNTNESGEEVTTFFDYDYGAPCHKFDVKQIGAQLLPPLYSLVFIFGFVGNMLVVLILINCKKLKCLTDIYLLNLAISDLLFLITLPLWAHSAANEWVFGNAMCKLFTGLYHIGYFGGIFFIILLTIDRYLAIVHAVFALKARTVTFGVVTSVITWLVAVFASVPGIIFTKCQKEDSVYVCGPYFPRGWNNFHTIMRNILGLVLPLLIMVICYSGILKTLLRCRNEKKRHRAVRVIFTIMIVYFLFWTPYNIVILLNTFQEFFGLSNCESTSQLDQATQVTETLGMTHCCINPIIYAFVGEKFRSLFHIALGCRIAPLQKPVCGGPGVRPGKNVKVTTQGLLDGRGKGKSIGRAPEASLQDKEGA

| Binder | IC50 in chemotaxis assay using human THP-1 cells, ligand MCP-1 (3 nM) [1] | IC50 in chemotaxis assay using human THP-1 cells, ligand MCP-3 (1.1 nM) [1] | IC50 in chemotaxis assay using mouse WEHI cells, ligand mouse MCP-1 (0.7 nM) (murine CCR2 [2]) | EC50 [3] | EC50 (murine CCR2 [4]) | IC50 in chemotaxis assay using human THP-1 cells, ligand MCP-4 (35 nM) [1] | IC50 in calcium flux assay using human THP-1 cells, ligand MCP-1 (2.5 nM) [8] | IC50 in calcium flux assay using human THP-1 cells, ligand MCP-3 (22 nM) [8] | IC50 in calcium flux assay using human THP-1 cells, ligand MCP-5 (0.43 nM) [8] | other results |
| --- | --- | --- | --- | --- | --- | --- | --- | --- | --- | --- |
| B1 | 0.13 nM | 0.1 nM | 0.035 nM | 0.13 nM | 4.8 nM | – | – | – | – | – |
| B2 | 0.17 nM | 0.11 nM | 0.062 nM | 0.17 nM | 1.5 nM | 0.14 nM | 0.18 nM | 0.19 nM | 0.28 nM | IC50 of D1 on MCP-1 (1 nM) induced primary human monocyte migration, another donor [5]: 3.48 nM; IC50 of D1 on MCP-1 (1 nM) induced primary human monocyte migration, first donor [5]: 1.02 nM; IC50 of D1 on MCP-1 (3 nM) induced THP-1 cell migration [5]: 0.194 nM; IC50 of D1 on MCP-1 (10 nM) induced THP-1 calcium mobilization [5]: 4.7 nM; IC50 of D1 on MCP-1 (10 nM) induced primary human monocyte calcium mobilization [5]: 2.8 nM; IC50 of D1 on mMCP-1 induced WEHI 274.1 cell migration (murine CCR2 [6]): 66 nM; IC50 on MCP-1 induced THP-1 cell migration [7]: 0.168 nM; IC50 on MCP-2 induced THP-1 cell migration [7]: 0.172 nM; IC50 on MCP-3 induced THP-1 cell migration [7]: 0.854 nM; IC50 on MCP-4 induced THP-1 cell migration [7]: 0.138 nM; IC50 on mouse MCP-5 induced THP-1 cell migration [7]: 0.19 nM; IC50 in chemotaxis assay using human THP-1 cells, ligand MCP-2 (6.7 nM) [1]: 0.17 nM; IC50 in chemotaxis assay using human THP-1 cells, ligand MCP-5 (0.65 nM) [1]: 0.19 nM; EC50 [9]: 0.168 nM; EC50 (murine CCR2 [10]): ~17 nM |
| B3 | 0.28 nM | – | 0.012 nM | 0.15 nM | 2 nM | 0.08 nM | 0.37 nM | 0.19 nM | 0.27 nM | – |
| B4 | – | – | – | 16 nM | 81 nM | – | – | – | – | – |
